# Experimental data as given in the supplement of paper PMC12667976.
# ± gives the standard error.
# B1: library; numbered along this chain (parent)
# chain: MATDAALRRLLRLHRTEIAVAVDSAFPLLHALADHDVVPEDKFQETLHLKEKEGCPQAFHALLSWLLTQDSTAILDFWRVLFKDYNLERYGRLQPILDSFPKDVDLSQPRKGRKPPAVPKALVPPPRLPTKRKASEEARAAAPAALTPRGTASPGSQLKAKPPKKPESSAEQQRLPLGNGIQTMSASVQRAVAMSSGDVPGARGAVEGILIQQVFESGGSKKCIQVGGEFYTPSKFEDSGSGKNKARSSSGPKPLVRAKGAQGAAPGGGEARLGQQGSVPAPLALPSDPQLHQKNEDECAVCRDGGELICCDGCPRAFHLACLSPPLREIPSGTWRCSSCLQATVQEVQPRAEEPRPQEPPVETPLPPGLRSAGEEVRGPPGEPLAGMDTTLVYKHLPAPPSAAPLPGLDSSALHPLLCVGPEGQQNLAPGARCGVCGDGTDVLRCTHCAAAFHWRCHFPAGTSRPGTGLRCRSCSGDVTPAPVEGVLAPSPARLAPGPAKDDTASHEPALHRDDLESLLSEHTFDGILQWAIQSMARPAAPFPS
# Variants of: B1
# Assay: AIRE transcriptional activation functional score (insulin promoter-GFP; nonsense median 0, synonymous median 1) (normalised score); higher = higher AIRE activity (more reporter activation)
# Conditions: with insulin promoter-GFP reporter in HEK293
# In short: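 Flp-In T-REx HEK293 landing-pad cells carrying an insulin core promoter-GFP reporter received codon-optimized AIRE NNN-codon libraries (three regions) through Bxb1 recombinase. Sorting of mCherry+, BFP− integrants took place at day 7, followed by 7 days of expansion and tile-sequencing of top 10% GFP and unselected integrant populations. A functional score was derived from select versus non-select variant enrichment with wild type subtracted. Values from variants reaching 10 counts per million in non-select were set to nonsense median 0 and synonymous median 1 and averaged over biological replicates.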
row,Variant,AIRE transcriptional activation functional score
1,D103I,0.368 ± 0.25
2,V420E,0.728 ± 0.1
3,V188K,0.779 ± 0.31
4,V188P,0.629 ± 0.33
5,A261F,1.22 ± 0.052
6,A61C,-0.153 ± 0.5
7,S99M,1.07 ± 0.094
8,D70P,-0.549 ± 0.45
9,L255D,0.362 ± 0.098
10,T344W,1.1 ± 0.066
11,A144W,1.99 ± 0.039
12,A144I,0.989 ± 0.23
13,D98Q,2.07 ± 0.15
14,Q172F,1.82 ± 0.32
15,A537H,0.783 ± 0.12
16,V443H,1.16 ± 0.069
17,V192Q,0.811 ± 0.053
18,V192F,0.922 ± 0.028
19,A142F,1.16 ± 0.13
20,I181V,0.788 ± 0.34
21,C311S,1.04 ± 0.16
22,Q530E,0.29 ± 0.21
23,W78C,0.126 ± 0.12
24,W78Y,0.346 ± 0.1

row,Variant,AIRE transcriptional activation functional score
1,P466F,0.774 ± 0.31
2,S339W,0.962 ± 0.052
3,P509F,1.17 ± 0.056
4,S372W,1.62 ± 0.065
5,S372I,0.653 ± 0.77
6,S187D,0.711 ± 0.14
7,S187P,0.621 ± 0.26
8,S518Y,1.3 ± 0.062
9,H292S,0.599 ± 0.16
10,H292Q,0.508 ± 0.22
11,P360I,1.13 ± 0.35
12,P360E,1.22 ± 0.099
13,E88K,0.437 ± 0.19
14,R203A,1.19 ± 0.18
15,R203K,0.243 ± 0.17
16,M194A,0.708 ± 0.14
17,R316G,1.33 ± 0.19
18,R316A,0.77 ± 0.27
19,A281K,1.67 ± 0.12
20,A403T,1.14 ± 0.063
21,A258F,1.19 ± 0.16
22,A186M,0.198 ± 0.13
23,E347Q,0.943 ± 0.2
24,L409Y,0.962 ± 0.075

row,Variant,AIRE transcriptional activation functional score
1,F543Q,0.317 ± 0.17
2,P252M,1.88 ± 0.082
3,P163D,-0.123 ± 0.17
4,P163A,0.36 ± 0.6
5,D526L,-0.764 ± 0.23
6,L327T,0.786 ± 0.33
7,K165T,-0.814 ± 0.87
8,K165F,1.23 ± 0.18
9,H458Q,0.165 ± 0.27
10,A450Y,0.311 ± 0.12
11,Q358K,1.02 ± 0.087
12,I224N,0.402 ± 0.21
13,I224S,0.599 ± 0.27
14,N86C,0.345 ± 0.37
15,N86H,-0.275 ± 0.44
16,N86W,-0.448 ± 0.18
17,D198F,0.583 ± 0.26
18,D198I,0.948 ± 0.15
19,A541V,1.1 ± 0.19
20,F453Q,-0.136 ± 0.063
21,Y85Q,-2.11 ± 0.086
22,Q189D,0.724 ± 0.17
23,L75G,0.82 ± 0.23
24,K52H,-0.455 ± 0.25

row,Variant,AIRE transcriptional activation functional score
1,K131V,0.174 ± 0.31
2,L291A,0.566 ± 0.33
3,R303V,1.16 ± 0.22
4,P350F,1.25 ± 0.27
5,P350G,1.14 ± 0.19
6,A399F,1.64 ± 0.071
7,P254K,0.683 ± 0.3
8,P254Q,1.2 ± 0.15
9,E383L,1.22 ± 0.32
10,E383M,0.564 ± 0.24
11,E383F,1.58 ± 0.17
12,S241R,0.436 ± 0.41
13,A500K,0.785 ± 0.32
14,A500E,0.98 ± 0.29
15,T151A,1.37 ± 0.58
16,R15Q,0.45 ± 0.067
17,H319T,1.38 ± 0.14
18,R328Y,1.34 ± 0.16
19,P233L,0.385 ± 0.12
20,S476W,1.09 ± 0.037
21,R12P,0.187 ± 0.17
22,S535Y,-1.02 ± 0.4
23,S287F,0.994 ± 0.031
24,N427L,1.51 ± 0.071

row,Variant,AIRE transcriptional activation functional score
1,R149M,0.41 ± 0.38
2,K294W,-0.487 ± 0.098
3,P109I,0.666 ± 0.43
4,P109G,0.279 ± 0.24
5,F100A,0.229 ± 0.85
6,P381V,1.15 ± 0.14
7,P381H,1.03 ± 0.21
8,P381T,0.929 ± 0.28
9,D304F,0.0957 ± 0.81
10,G313N,0.241 ± 0.062
11,G313I,0.979 ± 0.39
12,H454C,0.499 ± 0.32
13,H454E,0.0475 ± 0.31
14,H454S,-0.00319 ± 0.2
15,G228Y,0.381 ± 0.37
16,S153E,1.14 ± 0.16
17,S153R,0.588 ± 0.29
18,S474C,0.824 ± 0.33
19,L32A,-0.972 ± 0.61
20,A432N,-0.334 ± 0.22
21,A432W,1.88 ± 0.094
22,T334F,1.25 ± 0.23
23,T334K,0.794 ± 0.15
24,R132S,0.00923 ± 0.41

row,Variant,AIRE transcriptional activation functional score
1,P162M,0.548 ± 0.41
2,T130I,1.05 ± 0.38
3,T68G,0.848 ± 0.95
4,A246L,1 ± 0.36
5,K133L,-0.0606 ± 0.37
6,K133T,0.351 ± 0.38
7,P481R,0.956 ± 0.17
8,P481Q,0.501 ± 0.69
9,T147V,0.966 ± 0.9
10,D514M,0.515 ± 0.075
11,D105K,0.591 ± 0.051
12,D105A,1.52 ± 0.28
13,D105Y,1.72 ± 0.11
14,V80N,-6.41 ± 1
15,R257F,0.785 ± 0.1
16,H415K,0.65 ± 0.6
17,G269W,1.81 ± 0.065
18,G269R,1.13 ± 0.27
19,G269C,0.879 ± 0.44
20,H60Q,0.338 ± 0.4
21,H60D,-0.0281 ± 0.26
22,D503G,0.835 ± 0.25
23,S411N,0.99 ± 0.14
24,F59S,0.2 ± 0.44

row,Variant,AIRE transcriptional activation functional score
1,F59C,-0.268 ± 0.16
2,A2V,-0.0464 ± 0.12
3,F318H,1.42 ± 0.29
4,R471S,0.674 ± 0.38
5,E53K,1.55 ± 0.32
6,P116M,1.1 ± 0.35
7,P116Q,1.41 ± 0.49
8,P116R,0.38 ± 0.45
9,E136S,0.919 ± 0.38
10,H507M,1.47 ± 0.11
11,H507F,1.56 ± 0.1
12,A493V,1.1 ± 0.26
13,G260S,1.12 ± 0.18
14,D502Y,1.33 ± 0.25
15,G242A,1.19 ± 0.18
16,F230K,0.376 ± 0.08
17,P282F,0.638 ± 0.14
18,V118D,0.403 ± 0.48
19,L128R,0.525 ± 0.62
20,L273D,0.505 ± 0.15
21,A205N,0.648 ± 0.55
22,L323D,1.16 ± 0.038
23,A31C,-0.0426 ± 0.23
